Columns and labels:
TGFβ Receptor II (TβRII) = target: T1, TGFβ Receptor II (TβRII) (Mus musculus, UniProt Q62312); assay: ACLP binding assay: biotinylated rACLP on streptavidin plate incubated with TβRII Fc
T1 construct: contains the extracellular domain of mouse TβRII fused to the Fc domain of human IgG; purchased R&D
T1 sequence (Q62312 24-166 limits assumed): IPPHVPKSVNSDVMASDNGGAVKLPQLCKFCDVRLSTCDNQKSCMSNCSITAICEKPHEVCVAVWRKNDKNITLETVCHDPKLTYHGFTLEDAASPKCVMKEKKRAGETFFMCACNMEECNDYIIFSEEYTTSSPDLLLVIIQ
Experimental: ACLP binding assays. To determine if ACLP binds to TGFβ Receptor II (TORII), ACLP was biotinylated using an EZ-Link Sulfo-NHS-LC-Biotin kit (Thermo Scientific 21327) according to manufacturer's instructions. Briefly, rACLP (0.267 nM) was incubated with 20 fold molar excess of biotin for 30 min at room temperature. The protein was then dialyzed back into DPBS overnight. Biotinylated ACLP (1 μg/well) was immobilized on a PIERCE™ Streptavidin coated High-Binding Capacity Plate (Thermo-Scientific PI-15500) overnight at 4° C. in binding buffer made up of PBS with Mg^2+, Ca^2+, 0.1% BSA, and 0.05% Tween 20). The next day, the plates were washed with binding buffer, blocked with the same buffer containing 1% BSA at room temperature for 1 h, followed by incubation with increasing amounts of TβRII Fc (0, 10, 100, 1000 ng). Binding was detected with Human-IgG-HRP (GE Healthcare Life Sciences) followed by incubation with 3,3′,5,5′-Tetramethylbenzidine (TMB, eBioscience). The reaction was quenched with 2 M H2SO4 and absorbance at 450 nm was measured on the BioTek Synergy HT system.
ACLP binds to the TGFβ-receptor II. […] The TβRII Fc chimera contains the extracellular domain of mouse TβRII fused to the Fc domain of human IgG and has been used as a global inhibitor of TGFβ (6).

ACLP signaling (pSmad3) = assay: TGFβ receptor-Fc decoy block of rACLP-induced pSmad3 in IMR90 fibroblasts; type: cell-based; conditions: IMR90 human lung fibroblast cells, 90 mins
[1] = tested on: ACLP-induced myofibroblast differentiation; assay: TGFβ receptor-Fc decoy block of ACLP-induced SMA and SM-MHC expression in human lung fibroblasts; type: cell-based; conditions: human lung fibroblast cells with rACLP, 48 hours
[2] = tested on: TGFβ signaling activity (PAI-1 promoter luciferase); assay: MLEC-TGFβ activity assay (PAI-1 promoter luciferase reporter); type: cell-based, mink; conditions: MLEC-TGFβ cells, treated overnight in low serum media
Experimental: Cell Treatments. IMR90 human lung fibroblasts (ATCC) and AD293 cells (Stratagene) were grown in DMEM supplemented with 10% FBS and 1% penicillin/streptomycin and incubated in a 5% CO2 atmosphere at 37° C. Mink lung epithelial cells stably transfected with the plasminogen activator inhibitor 1 (PAI-1) reporter construct driving luciferase expression (MLEC-TGFβ) (2) were grown in DMEM supplemented with 10% FBS and 1% penicillin/streptomycin, maintained in 250 μg/ml G418, and incubated in a 5% CO2 atmosphere at 37° C. IMR90 cells and MLEC-TGFβ cells were generally treated for 30 min, 24 h, or 48 h in low serum media containing 0.5% FBS and 1% penicillin/streptomycin and incubated in a 5% CO2 atmosphere at 37° C. Cells were treated with 3.75 μg/ml (approximately 30 nM) rACLP (full length, Tsp, or C-terminal) or 1 nM TGFβ (R&D) (as a positive control), except where indicated. Cells treated for 30 min were serum starved in low serum media overnight preceding treatment. MLEC-TGFβ activity assay. To measure TGFβ signaling activity, 1×10^4 MLEC-TGFβ cells/well were plated on white 96-well cell culture treated plates and allowed to adhere overnight. […] Luciferase activity was measured on an auto-injecting BioTek Synergy HT plate reader using 50 μl of luciferase assay substrate (Promega).

[3] = tested on: Smad3 phosphorylation (canonical TGFβ signaling); assay: Smad3 phosphorylation in serum starved IMR90 fibroblasts (Western blot); type: cell-based, human; conditions: serum starved IMR90, ~30 nM protein, 30 min, low serum media
Experimental: (§1) IMR90 cells and MLEC-TGFβ cells were generally treated for 30 min, 24 h, or 48 h in low serum media containing 0.5% FBS and 1% penicillin/streptomycin and incubated in a 5% CO2 atmosphere at 37° C. Cells were treated with 3.75 μg/ml (approximately 30 nM) rACLP (full length, Tsp, or C-terminal) or 1 nM TGFβ (R&D) (as a positive control), except where indicated. Cells treated for 30 min were serum starved in low serum media overnight preceding treatment.
rACLP stimulates canonical TGFβ signaling (Published Tumelty et al JBC 2014). Because ACLP increases TGFβ signaling in a reporter assay, the role of ACLP in canonical TGFβ signaling was investigated in detail. In pulmonary fibroblasts, TGFβ promotes the phosphorylation of Smad3 which then binds to Smad4 and translocates into the nucleus to promote transcription of myofibroblast marker genes (4,5). Therefore, the effects of ACLP on Smad3 phosphorylation were measured. Serum starved IMR90 cells were treated with rACLP for 15, 30, 45, or 60 min, or 24 h (FIG. 3) (3).
Serum starved IMR90 human lung fibroblasts were treated with equivalent molar amounts (˜30 nM) of purified full-length, Tsp repeat domain, or C-terminal protein for 30 min in low serum media (FIG. 6).

[4] = tested on: IMR90 human lung fibroblast cells; assay: SMA and collagen I protein expression in IMR90 fibroblasts treated with recombinant ACLP proteins (Western blot); type: cell-based; conditions: IMR90, low serum media, 3.75 μg/ml (~30 nM) protein, 48 h, vs control cells
Experimental: Cell Treatments. IMR90 human lung fibroblasts (ATCC) and AD293 cells (Stratagene) were grown in DMEM supplemented with 10% FBS and 1% penicillin/streptomycin and incubated in a 5% CO2 atmosphere at 37° C. Mink lung epithelial cells stably transfected with the plasminogen activator inhibitor 1 (PAI-1) reporter construct driving luciferase expression (MLEC-TGFβ) (2) were grown in DMEM supplemented with 10% FBS and 1% penicillin/streptomycin, maintained in 250 μg/ml G418, and incubated in a 5% CO2 atmosphere at 37° C.
as §1
Recombinant ACLP induces myofibroblast gene and protein expression. To further define the role of ACLP in the fibroblast to myofibroblast differentiation process, IMR90 human lung fibroblast cells were treated with rACLP. […] IMR90 cells were grown in media containing 3.75 μg/ml (30 nM) rACLP or 1 nM TGFβ as a positive control (FIG. 2A). […] These findings indicate that ACLP promotes the fibroblast to myofibroblast differentiation because it stimulates expression of SMA and collagen 1(3).
The N-terminal domain of ACLP promotes myofibroblast marker protein expression. Because the inventors discovered that the N-terminal Tsp motifs of ACLP (e.g. the PFD) is the domain responsible for promoting TGFβ signaling, the inventors next assessed which domain of ACLP is responsible for increased SMA and collagen I expression in lung myofibroblasts. IMR90 lung fibroblasts were treated in low serum media containing equal molar amounts of full-length protein, the pro-fibrotic domain (PFD) of ACLP, and C-terminal ACLP (˜30 nM) for 48 h (FIG. 7).

B1: TβRII Fc: extracellular domain of mouse TβRII fused to the Fc domain of human IgG (R&D); exemplary decoy ACLP inhibitor (protein)
chain: T1 sequence (Q62312 24-166 limits assumed)
modifications: left off: a dimerising Fc or GST
**Q.** How did the “binding to streptavidin wells without ACLP” value (TGFβ Receptor II (TβRII); control wells without ACLP) turn out when B1 was run?
**A.** The value was “did not bind”.

**Q.** What about the “amount that inhibited ACLP binding to TGFβ-RII in vitro” value (TGFβ Receptor II (TβRII); in vitro) of the same molecule?
**A.** Its value is “at least 100 ng”.

**Q.** And the “pSmad3 expression in the presence of mouse rACLP” value (ACLP signaling (pSmad3))?
**A.** The value was “decreases pSmad3 expression”.

**Q.** What about the “ACLP-induced SM-MHC expression” value [1] of the same molecule?
**A.** Its value is “decreases”.

**Q.** And the “ACLP-induced SMA expression” value [1]?
**A.** The value was “decreases”.

B2: Tsp repeat domain: recombinant N-terminal Tsp repeat domain of mouse ACLP, amino acids 26-373, myc-His tagged (protein)
chain: QTVLTDDEIEEFLEGFLSELETQSPPREDDVEVQPLPEPTQRPRKSKAGGKQRADVEVPPEKNKDKEKKGKKDKGPKATKPLEGSTRPTKKPKEKPPKATKKPKEKPPKATKKPKEKPPKATKKPKEKPPKATKRPSAGKKFSTVAPLETLDRLLPSPSNPSAQELPQKRDTPFPNAWQGQGEETQVEAKQPRPEPEEETEMPTLDYNDQIEKEDYEDFEYIRRQKQPRPTPSRRRLWPERPEEKTEEPEERKEVEPPLKPLLPPDYGDSYVIPNYDDLDYYFPHPPPQKPDVGQEVDEEKEEMKKPKKEGSSPKEDTEDKWTVEKNKDHKGPRKGEELEEEWAPVEK
modifications: left off: small tags and cut ends
notes: recombinant N-terminal Tsp repeat domain of mouse ACLP, amino acids 26-373, myc-His tagged
**Q.** B2 was tested. Which “amount that stimulated luciferase activity” value [2] did it give?
**A.** The value was ≤ 5 µg/mL.

**Q.** What about the Smad3 phosphorylation [3] of the same molecule?
**A.** The Smad3 phosphorylation was “stimulated Smad3 phosphorylation”.

**Q.** And the SMA protein expression [4]?
**A.** Its SMA protein expression is “promoted an increase”.

**Q.** What about the collagen protein expression [4] of the same molecule?
**A.** The collagen protein expression was “promoted an increase”.
